Results on one substance are retold here after article PMC7308715.

This assay addresses N-ribosyltransferase from Archaeoglobus veneficus SNP6 (AvNRT) (Archaeoglobus veneficus SNP6). Put plainly: AUC; sedimentation velocity; 20 mM Tris-HCl, pH 8, 20 °C, 50,000 x g; profiles recorded at 292 nm; c(s) analysis with SEDFIT.

“N-ribosyltransferase from Archaeoglobus veneficus SNP6 (AvNRT) (enzyme)” came in with a stoichiometry N of 4.
